Test results: patent US8461305B2, “L-fucose α1→6 specific lectin” (J-Oil Mills, Inc., priority 2008, dated 2013)

How the values were obtained:
[1] = hemagglutinating inhibition test with sugars (sugar binding specificity); type: cell-based
In short: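 Double dilution series of sugars or glycoproteins were preincubated 1 h at room temperature with lectin adjusted to titer 4, then 4% red blood cell suspension was added for a further 1 h at room temperature. The minimum inhibition concentration was taken as the lowest concentration still inhibiting hemagglutination.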

[2] = frontal affinity chromatography (FAC), association constant to PA sugar chains having other L-fucose; type: binding; conditions: 25 degrees C.
In short: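 Lectin coupled via primary amines to NHS-activated sepharose in a miniature column, run in TBS (pH 7.4) at 0.125 ml/min and 25 degrees C. PA sugar chains (3.75 nM or 7.5 nM) applied in excess, with elution monitored by fluorescence (ex 310/em 380 nm). Ka calculated from front-end delay (V−Vo) versus PA rhamnose and effective ligand amount (Bt).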

B1: Pisum sativum agglutinin (protein)
chain: TETTSFLITKFSPDQQNLIFQGDGYTTKEKLTLTKAVKNTVGRALYSSPIHIWDRETGNVANFVTSFTFVINAPNSYNVADGFTFFIAPVDTKPQTGGGYLGVFNSAEYDKTTQTVAVEFDTFYNAAWDPSNRDRHIGIDVNSIKSVNTKSWKLQNGEEANVVIAFNAATNVLTVSLTYPNSLEEENVTSYTLSDVVSLKDVVPEWVRIGFSATTGAEYAAHEVLSWSFHSELSGTSSSKQAADA
50 mM: minimum inhibition concentration of hemagglutination ([1]; inhibitor: Mannose) | minimum inhibition concentration of hemagglutination ([1]; inhibitor: Metyl α-mannoside)
<1000 M⁻¹: association constant Ka ([2]; Sugar chain No. 419) | association constant Ka ([2]; Sugar chain No. 420) | association constant Ka ([2]; Sugar chain No. 718) | association constant Ka ([2]; Sugar chain No. 719) | association constant Ka ([2]; Sugar chain No. 720) | association constant Ka ([2]; Sugar chain No. 721) | association constant Ka ([2]; Sugar chain No. 722) | association constant Ka ([2]; Sugar chain No. 723) | association constant Ka ([2]; Sugar chain No. 726) | association constant Ka ([2]; Sugar chain No. 727) | association constant Ka ([2]; Sugar chain No. 728 (as listed in Table 5/12)) | association constant Ka ([2]; Sugar chain No. 729) | association constant Ka ([2]; Sugar chain No. 730) | association constant Ka ([2]; Sugar chain No. 731) | association constant Ka ([2]; Sugar chain No. 739) | association constant Ka ([2]; Sugar chain No. 909) | association constant Ka ([2]; Sugar chain No. 910) | association constant Ka ([2]; Sugar chain No. 931) | association constant Ka ([2]; Sugar chain No. 932) | association constant Ka ([2]; Sugar chain No. 933)
>100 mM: minimum inhibition concentration of hemagglutination ([1]; inhibitor: Fructose) | minimum inhibition concentration of hemagglutination ([1]; inhibitor: Galactose) | minimum inhibition concentration of hemagglutination ([1]; inhibitor: Glucose) | minimum inhibition concentration of hemagglutination ([1]; inhibitor: L-fucose) | minimum inhibition concentration of hemagglutination ([1]; inhibitor: Maltose) | minimum inhibition concentration of hemagglutination ([1]; inhibitor: Melibiose) | minimum inhibition concentration of hemagglutination ([1]; inhibitor: N-Acetylneuraminic acid) | minimum inhibition concentration of hemagglutination ([1]; inhibitor: N-acetylgalactosamine) | minimum inhibition concentration of hemagglutination ([1]; inhibitor: N-acetylglucosamine) | minimum inhibition concentration of hemagglutination ([1]; inhibitor: N-glycolylneuraminic acid) | minimum inhibition concentration of hemagglutination ([1]; inhibitor: Raffinose) | minimum inhibition concentration of hemagglutination ([1]; inhibitor: Rhamnose) | minimum inhibition concentration of hemagglutination ([1]; inhibitor: Sucrose) | minimum inhibition concentration of hemagglutination ([1]; inhibitor: Xylose)
>6 mM: minimum inhibition concentration of hemagglutination ([1]; inhibitor: Lactose) | minimum inhibition concentration of hemagglutination ([1]; inhibitor: Serial lactose)
